Experimental data: the supplement of paper PMC11865577

How the values were obtained:
Assay in all cases: pull-down binding Z-score (relative to library population); higher = stronger binding
[1] = test system: G-clamp-N3 (biotin conjugate); conditions: RNA library: Library-1 (pre-miRNA loops + repeats)
How it was run: (§1)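 Binding is given as a Z-score against the library mean and standard deviation, calculated after removing the beads-only signal and averaging barcoded replicate probes without their highest and lowest values. Cy5- or Cy3-end-labelled RNA library (1 μg) was heat-folded in phosphate/NaCl/KCl buffer and incubated 60 min at 25 °C with streptavidin beads bearing 100 pmol of biotin-conjugated small molecule. After three washes, RNA eluted in hot SDS was hybridised to a DNA barcode microarray for 20 h at 55.5 °C.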

TO-N3 (biotin conjugate) = conditions: RNA library: Library-2
How it was run: as §1

[2] = test system: TO-3-N3-2 (biotin conjugate); conditions: RNA library: Library-2
How it was run: as §1

[3] = test system: TO-3-N3 (biotin conjugate); conditions: RNA library: Library-2
How it was run: as §1

[4] = test system: TO-N3-2 (biotin conjugate); conditions: RNA library: Library-2
How it was run: as §1

Sequence | pull-down binding Z-score [1] | pull-down binding Z-score (TO-N3 (biotin conjugate)) | pull-down binding Z-score [2] | pull-down binding Z-score [3] | pull-down binding Z-score [4]
ACACCUGUAAAGAAUUGGUCAGCCUGGGGACUGGUGAUCUCUGCAGCUGU [hsa-mir-4265] | -0.15 | 1.39 | 0.475 | 1.15 | 1.42
ACACUGCGCUGCCCCAGACCCACUGU [hsa-mir-210] | -1.18 | 0.83 | 0.103 | 0.364 | 0.683
ACACUGGGCUGCCCCCACUGCCCAGUGC [hsa-mir-4277] | -0.963 | 0.594 | -0.357 | 0.676 | 0.413
ACACUUCCUAUAUGUAUCCACAUAUAUAUAGU [hsa-mir-568] | 0.00925 | -0.69 | -0.0673 | -0.562 | -0.936
ACAGAGUGAGAUGGUCUUGUUUUGU [hsa-mir-5684] | 0.00683 | -0.673 | -0.409 | -0.542 | -0.546
ACAGCAGUCUUACUGAAGGUUUCCUGGAAACCACGCACAUGCUGU [hsa-mir-744] | -0.613 | -0.165 | -0.233 | -0.304 | -0.5
ACAGCCAGUGCUCUCGUCUCCCCUCUGGCUGC [hsa-mir-192] | 0.589 | 0.925 | 0.236 | 0.839 | 0.949
ACAGCGCCACGGAAGAGGACGCA [hsa-mir-941-4_941-5_941-2_941-3_941-1] | -0.758 | 0.495 | -0.211 | 0.0968 | 0.874
ACAGGUAGUGGCCACAGUGAGAAAGCUGGCCUGUCCUUCUGC [hsa-mir-4314] | -0.00957 | 0.245 | 0.0324 | -0.00864 | 0.681
ACAGUGGACUUGGUGACGCUGU [hsa-mir-675] | 1.67 | -0.456 | -0.252 | -0.46 | -0.259
ACAGUGGCCACAUCUCCAC [hsa-mir-1184-3_1184-2_1184-1] | -1.28 | 1.17 | 0.472 | 1.11 | 0.582
ACAGUUUGAGGGUCUAUGAUACCACCCGGUACAGGAGAUAACUGU [hsa-let-7g] | 0.817 | -0.0397 | -0.136 | -0.508 | 0.988
ACAUGAAAAUAAAAUGUAAAUUAUUUUAUUUCUAUCA [hsa-mir-3671] | -0.346 | 0.652 | 0.294 | 0.665 | -0.163
ACAUGCAGUAUUUGG [hsa-mir-1302-8] | 0.976 | -0.242 | -0.047 | -0.326 | -0.0326
ACAUUUGCAACCUGUGAAGAUGCAAAACUUUAAGUGU [hsa-mir-2053] | -0.673 | -0.853 | -0.262 | -0.699 | -0.701
ACCAAAAAUGAUAUGGGU [hsa-mir-7977] | 1.5 | -0.532 | 0.11 | -0.344 | -0.381
ACCAAAACACUCAUCGCGG [hsa-mir-1260a] | -0.734 | -0.188 | 0.105 | -0.138 | -0.00378
ACCACCCAGGCCUUAUGGCUUCAUA [hsa-mir-7974] | -1.68 | 0.233 | -0.0756 | -0.102 | 0.0927
ACCACUGUGAAGACAGUAAAAUGUACAGUGGU [hsa-mir-597] | 0.0112 | -0.598 | -0.0901 | -0.324 | -1.1
ACCAUAGUCAUAAGUUAGGAGAUGUUAGAGCUGUGAGU [hsa-mir-4286] | 0.233 | -0.108 | 0.296 | -0.464 | 0.807
ACCAUAUCUAAGCUAAUGUGGUGGU [hsa-mir-876] | 0.651 | -0.139 | 0.00992 | -0.157 | -0.259
ACCCAGGACUCUUUCAUGACCA [hsa-mir-665] | -0.54 | 0.101 | 0.144 | -0.0474 | 0.384
ACCCGGGUGGUGGAGGUUGCAGUGAGCCAAGAUUGCGCCACUGCACUCCAGCCUGGGC [hsa-mir-1273a] | -0.139 | 1.94 | 0.442 | 1.06 | 1.66
ACCCUGCAGCCCCAGCUGGAGGAUGAGGAGAUGCUGGGCUUGGGU [hsa-mir-4313] | 1.16 | 1.73 | 1.45 | 0.794 | 2.93

Sequence | pull-down binding Z-score [1] | pull-down binding Z-score (TO-N3 (biotin conjugate)) | pull-down binding Z-score [2] | pull-down binding Z-score [3] | pull-down binding Z-score [4]
ACCUAACACACUGCCUUUUAUGUGGUAGGU [hsa-mir-5094] | -1.19 | -1.02 | -0.66 | -0.678 | -1.14
ACCUCCUGGCUUUUCCUCUGCAGCAUGGCUCGGACCUAGUGCAAUGUUUAAGCU [hsa-mir-6826] | -0.435 | 0.659 | 0.506 | 0.104 | 0.769
ACCUGUGUGUGCCCAAGUGUUUCUAGCAAACACAGGG [hsa-mir-3649] | 0.215 | 0.757 | 0.425 | 0.76 | 0.193
ACCUUCCAAGGCUCAGAAGGU [hsa-mir-4650-1_4650-2] | -0.155 | -0.702 | -0.432 | -0.702 | -0.0713
ACGAGAGUGAGUAGCAGGUCUC [hsa-mir-128-2] | 2.31 | 0.627 | 0.361 | -0.117 | 1.51
ACGAUAUAGGUAUGUAUGUAUGUAUGUAUAAAAGCAGGGCAGUAUAUAUAUCGU [hsa-mir-4536-2] | 1.53 | 0.862 | 0.723 | 0.847 | 0.482
ACGAUAUAUAUACUGCCCUGCUUUUAUACAUACAUACAUACAUACCUAUAUCGU [hsa-mir-4536-1] | -0.956 | -0.734 | -0.00614 | -0.603 | -0.809
ACGCGCUGUGACACUUCAAACUCGU [hsa-mir-126] | -0.904 | 0.062 | -0.171 | -0.0932 | 0.424
ACGUCCAGUGGUGCAGAGGUAAUGGACGU [hsa-mir-1306] | 2.13 | 0.283 | 0.227 | 0.0986 | 1.37
ACGUCUGGCCGCGUGCGCAUGU [hsa-mir-3175] | 1.55 | 0.838 | -0.244 | -0.222 | 1.89
ACGUGACCUCCUGGGCCUG [hsa-mir-6770-1_6770-3_6770-2] | -0.342 | 0.829 | 0.131 | 0.505 | 1
ACUAAUUUUUCCACUAGUUAGU [hsa-mir-4424] | -0.61 | -0.137 | -0.199 | 0.228 | -1.16
ACUACUAUAGGCCGCUGGGAAGCAGU [hsa-mir-130b] | 0.987 | 1.13 | 0.542 | 1.04 | 0.667
ACUACUGUACUUUACAGCUAGCAGU [hsa-mir-301a] | 0.0373 | 0.303 | -0.244 | -0.475 | 1.09
ACUACUGUGCUCUGAGAAGCAGU [hsa-mir-301b] | 1.42 | 0.643 | -0.255 | 0.599 | 0.325
ACUAGAUUUGAAUCCAGACCUUUAGU [hsa-mir-5584] | -0.461 | 0.715 | 0.3 | 0.878 | -0.111
ACUCCCAGAACUCAUUAAGUUGGUAGU [hsa-mir-1278] | -0.174 | -0.188 | -0.184 | -0.0721 | -0.482
ACUCCUAGGUCACGGAAGU [hsa-mir-6838] | -0.404 | -0.23 | -0.33 | -0.255 | -0.0545
ACUGAACCAGCUUCAAACAAGUUCACU [hsa-mir-653] | -0.145 | -0.121 | 0.0338 | -0.0896 | -0.00579
ACUUAAGCACCAGGUAAAAUCUGGUGCUUAAGU [hsa-mir-4720] | 0.139 | -1.56 | -0.698 | -1.09 | -1.69
ACUUCAGAUGCUUCAUGACA [hsa-mir-6865] | -0.511 | -0.0452 | -0.117 | -0.0886 | -0.0136
ACUUUCACCAGAGAGCAGAAAGU [hsa-mir-371b] | 0.341 | -0.636 | -0.564 | -0.485 | -0.356
ACUUUCUGGUGCCAGAAUGAAAGU [hsa-mir-512-2_512-1] | -0.15 | -0.538 | -0.218 | -0.391 | 0.129
ACUUUCUGUUUGAAAGAAAACAAAGU [hsa-mir-519e] | -0.167 | -0.981 | -0.409 | -0.798 | -0.767

Sequence | pull-down binding Z-score [1] | pull-down binding Z-score (TO-N3 (biotin conjugate)) | pull-down binding Z-score [2] | pull-down binding Z-score [3] | pull-down binding Z-score [4]
ACUUUUUUUUUUUUUUUUUUUAAUGUUAAAAGU [hsa-mir-5588] | 0.463 | -0.82 | 0.823 | -0.429 | -0.107
AGAAAAUUUUUCUCCAAAGUUUUCU [hsa-mir-4659b] | -0.123 | -1.06 | -0.443 | -0.634 | -1.66
AGAAACCUACUUAUUACAUAGUUUACAUAAGAAGCGUGAU [hsa-mir-1322] | -0.594 | 0.0288 | -0.0921 | -0.129 | -0.00549
AGAAAGUGAAACACUAUUUUAGGUUUU [hsa-mir-4458] | -0.486 | -0.0974 | -0.00981 | 0.0524 | -0.248
AGAAAUCAAGCUAUUUGCUAAAAGUUCU [hsa-mir-6844] | -0.369 | -0.316 | 0.246 | -0.362 | -0.0563
AGAACAGAUAUAUCCACAGUACACUUGGCUGUUCU [hsa-mir-4753] | 0.593 | -0.943 | -0.354 | -0.759 | -0.635
AGAACAUUCGUUCACUUUCCU [hsa-mir-6747] | -1.1 | -0.404 | -0.29 | -0.352 | -0.376
AGAACUUUGGUUUU [hsa-mir-4434] | 0.298 | -1.1 | -0.611 | -0.711 | -1.38
AGAAGAACU [hsa-mir-378j] | -0.205 | -0.272 | -0.0957 | -0.279 | -0.277
AGAAGACCU [hsa-mir-378g] | 0.213 | 0.403 | 0.241 | 0.421 | 0.244
AGAAGCCCAGGUUCUGAAUCCCCU [hsa-mir-6734] | -1.05 | 0.628 | 0.23 | 0.393 | 0.901
AGAAGCUAAAGUGUAGAUCAAACGCAUAAUGGCUGA [hsa-mir-4500] | -0.364 | 0.65 | 0.195 | 0.197 | 0.233
AGAAGGCCUAUGGUGAUUUGCAUUCUU [hsa-mir-6875] | 0.997 | -0.072 | 0.226 | -0.099 | -0.105
AGAAUUACUUAUCUGAGCCAAAGUAAUUCA [hsa-mir-1297] | -0.86 | 0.386 | 0.225 | 0.332 | -0.336
AGACAGCCUGAGUUGGAGGCUCAUCUUCACUUCUUGCUGUGU [hsa-mir-3168] | -0.917 | 0.262 | -0.221 | 0.0963 | 0.168
AGACCUUCCUUCCUUGUCU [hsa-mir-3163] | -1.91 | -0.558 | -0.206 | -0.452 | -0.35
AGACUCUGGAUUUUACACUUGGAGUG [hsa-mir-887] | -0.423 | -0.207 | -0.196 | -0.461 | -0.0223
AGAGAUGAGCAUAAAGUUUUU [hsa-mir-6086] | -1.36 | -0.104 | -0.12 | 0.0616 | -0.389
AGAGCACCUCCUAGAGAAUGUUGAACUAAAGGUGCCC [hsa-mir-4723] | -0.814 | 0.813 | 0.528 | 0.573 | 1.16
AGAGCGUGGGCUGGGGUUCAGGGACACCCUCU [hsa-mir-1229] | 1.46 | 1.57 | 0.738 | 1.15 | 1.86
AGAGGCUGUGGGCAGGGGGAGAUGUGAAGGAAAGAACUAGGACCCAUUCAUCCACU [hsa-mir-6807] | 0.739 | 2.97 | 2.57 | 2.51 | 2.79
AGAGUCCUGUUGUUGUAAGAUAGUGUCU [hsa-mir-550a-3] | 0.441 | -0.515 | -0.265 | -0.56 | -0.0681
AGAUAGUGAAGUAGAUUAGCAUCUACU [hsa-mir-18a] | -0.59 | -0.387 | 0.201 | -0.484 | 0.0251
